Test results published in paper PMC3509132, “Global Epigenetic Changes Induced by SWI2/SNF2 Inhibitors Characterize Neomycin-Resistant Mammalian Cells” (PLoS ONE, 2012).

Target: T1, ADAAD wild type (GST cleaved) (UniProt Q9TTA5 229-940)
T1 sequence: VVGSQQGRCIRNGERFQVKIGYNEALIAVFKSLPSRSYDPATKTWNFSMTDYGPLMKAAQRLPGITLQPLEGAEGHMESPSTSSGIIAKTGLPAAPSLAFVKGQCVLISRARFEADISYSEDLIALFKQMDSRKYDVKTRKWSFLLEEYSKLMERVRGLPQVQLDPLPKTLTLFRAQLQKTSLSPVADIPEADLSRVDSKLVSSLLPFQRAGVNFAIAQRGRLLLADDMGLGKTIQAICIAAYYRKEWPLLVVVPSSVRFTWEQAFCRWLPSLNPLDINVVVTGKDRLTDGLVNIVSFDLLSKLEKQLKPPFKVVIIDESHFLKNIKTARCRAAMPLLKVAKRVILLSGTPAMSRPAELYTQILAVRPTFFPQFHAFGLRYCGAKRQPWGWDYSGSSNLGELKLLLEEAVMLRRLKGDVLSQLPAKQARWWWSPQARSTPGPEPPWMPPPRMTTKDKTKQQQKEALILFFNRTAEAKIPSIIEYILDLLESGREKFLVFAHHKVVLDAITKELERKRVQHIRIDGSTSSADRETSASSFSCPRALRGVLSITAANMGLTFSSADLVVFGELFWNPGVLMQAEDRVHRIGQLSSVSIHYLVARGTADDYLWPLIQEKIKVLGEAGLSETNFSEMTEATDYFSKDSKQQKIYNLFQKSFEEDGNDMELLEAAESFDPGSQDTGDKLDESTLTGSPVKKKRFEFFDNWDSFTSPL
Assay: intrinsic tryptophan fluorescence quenching; Fluorescence at 25 C (Cary-Varian spectrofluorimeter); buffer, salt and pH not given (as in ref 13)
Conditions: protein: recombinant; tags: none (GST removed with PreScission); hairpin

GCGCAATTGCGCTCGACGATTTTTTAGCGCAATTGCGC (structured_DNA) [slDNA (stem-loop DNA)]
Kd: 3.8 ± 1.1 nM
